Test results from paper PMC4759255.

These sequences were tested against T1, His-LexA (Synechocystis sp. PCC 6803) (UniProt P73722) (assay: EMSA). Details: Roche DIG gel shift kit 2nd generation buffer per manufacturer plus 1 mM DTT, 25 min at room temperature, 6% polyacrylamide gel; 5x and 50x unlabeled ….
T1 sequence: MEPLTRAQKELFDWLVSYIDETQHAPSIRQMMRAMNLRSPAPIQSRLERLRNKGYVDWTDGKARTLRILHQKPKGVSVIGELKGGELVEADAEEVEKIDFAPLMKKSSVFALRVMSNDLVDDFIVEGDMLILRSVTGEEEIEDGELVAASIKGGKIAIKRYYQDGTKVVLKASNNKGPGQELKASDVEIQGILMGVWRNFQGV

binding, binds:
TGGGCAGGGTAAATTGATTTTTTCTTGTTGTTTGATCCCATTTTCCAGTCTTTTTGACTTCCATTCAGTCAGGATAATTTTTGCAGTTTTTTTATGGAGTTTTGATAACATTGAGCTTTGCCCCCGGCGATCGCCTAGGGATAAACAATAAACGTGTGAACTAATATGCCTGGATTTATCCCTGGATTGACATTGTTTTTGCC (double strand) [slr1670 promoter], GTGACAACTAACATCACCTAGATGATAAGTTAATTTACAACAAATGATTGTTAGCCAGCTCACCAAAACCTGTGACAATAAACACCAAAACAGTTTACTTGTTTCTATAATTTTCCCTGAAACTGGGGTTTGAGAGGGTCTAGGGGAGAATTTAGTTATTGTTTGGATATATTGTCATGGCACCACAAAAGCCGTCAACAAA (double strand) [pilA9 promoter], TTGTTCAAGATCATTAGGCTTTAGTATATTTATAGTGATCAAAAAAGCAAGTGGTGAAAGAAACACCCAGACAAATATTCACAAAACTTAATTTTACTTAACAAATCATAATCCAGTTACGCAGTTACCACCTACACGGGAACCAGAACGCACGATTCCCAAGCCGGAAGAAATTACTAAGCATGGCTCATAGGATGTTCTAC (double strand) [pilA7 promoter], TGGGATCAAACAACAAGAAAAAATCAATTTACCCTGCCCATGGCAATAGTTTTAAGGTTAACAAAAAAAATAGAATTTACCGCAATCGACGGGTAAATTTCCAGAGGATACCCCCAACTCCAGAAGCAGAAATCTTGCCAGAAAAGCTTTTTCTGTTACTATACTTAACAAGTAACTACTTTTTCC (double strand) [ggpS promoter]
